# Values of other authors, collected in patent publication US20230295339A1, “METHOD FOR TREATING A GD2-POSITIVE CANCER” (EUSA PHARMA (UK) LIMITED, priority 2020, published 2023).
# B1: dinutuximab beta: chimeric (murine/human) anti-GD2 IgG1 monoclonal antibody produced in CHO cells (antibody, chains of the INN, looked up, V domains shown)
# VH: EVQLLQSGPELEKPGASVMISCKASGSSFTGYNMNWVRQNIGKSLEWIGAIDPYYGGTSYNQKFKGRATLTVDKSSSTAYMHLKSLTSEDSAVYYCVSGMEYWGQGTSVTVSS
# VL: EIVMTQSPATLSVSPGERATLSCRSSQSLVHRNGNTYLHWYLQKPGQSPKLLIHKVSNRFSGVPDRFSGSGSGTDFTLKISRVEAEDLGVYFCSQSTHVPPLTFGAGTKLELK
# B2: Unituxin: chimeric anti-GD2 antibody ch14.18 produced in SP2/0 murine hybridoma cells (antibody, chains of the INN, looked up, V domains shown)
# VH: B1 VH
# VL: B1 VL
# B3: humanized 3F8: murine anti-GD2 antibody 3F8 humanized as naxitamab (antibody, chains of the INN, looked up, V domains shown)
# VH: QVQLVESGPGVVQPGRSLRISCAVSGFSVTNYGVHWVRQPPGKGLEWLGVIWAGGITNYNSAFMSRLTISKDNSKNTVYLQMNSLRAEDTAMYYCASRGGHYGYALDYWGQGTLVTVSS
# VL: EIVMTQTPATLSVSAGERVTITCKASQSVSNDVTWYQQKPGQAPRLLIYSASNRYSGVPARFSGSGYGTEFTFTISSVQSEDFAVYFCQQDYSSFGQGTKLEIK
# Assays:
# [1] = for Kd: read-out: apparent kD for binding to GD2
Molecule,"tolerability of cumulative dose in maintenance treatment (10 days, 10 mg/m^2/day, 35-day intervals, 5 cycles, cumulative 500 mg/m^2 in 175 days)",toxicity in subsequent cycles (in vivo),binding preference for GD2 versus the related glycan structure GQ2 [1],binding preference for GD2 versus the related glycan structure GT2 [1],Kd [1] [nM]
B1,feasible and well-tolerated,decrease of dinutuximab beta toxicity in subsequent cycles,,,
B2,,,1000,> 5000,60
B3,,,200,1500,7.7
